# *1 amine or outer side, *2 acyl side, *3 side chain or, on linkers, in order; H or OH if unused. Where no end group is shown, it is not given here. Side-chain parts run from the residue outwards. [ ]: non-standard residue; d: D form. The star is where a group is joined. C20 diacid = O=C(O)CCCCCCCCCCCCCCCCCCC(=O)*; C18 diacid = O=C(O)CCCCCCCCCCCCCCCCC(=O)*; γGlu = O=C(O)[C@H](CCC(=O)[*:2])N[*:1]; εLys = N[C@@H](CCCCN[*:1])C(=O)[*:2]; pGlu = O=C1CC[C@@H](C(=O)O)N1; αMeL = CC(C)C[C@](C)(N)C(=O)O; PKE = not defined here; AEEA = NCCOCCOCC(=O)O; Aib = CC(C)(N)C(=O)O; Ahx = NCCCCCC(=O)O; βAla = NCCC(=O)O
# T1: human corticotropin-releasing hormone receptor 1 (CRHR1) (human, UniProt P34998 24-415)
# T1 sequence (looked up): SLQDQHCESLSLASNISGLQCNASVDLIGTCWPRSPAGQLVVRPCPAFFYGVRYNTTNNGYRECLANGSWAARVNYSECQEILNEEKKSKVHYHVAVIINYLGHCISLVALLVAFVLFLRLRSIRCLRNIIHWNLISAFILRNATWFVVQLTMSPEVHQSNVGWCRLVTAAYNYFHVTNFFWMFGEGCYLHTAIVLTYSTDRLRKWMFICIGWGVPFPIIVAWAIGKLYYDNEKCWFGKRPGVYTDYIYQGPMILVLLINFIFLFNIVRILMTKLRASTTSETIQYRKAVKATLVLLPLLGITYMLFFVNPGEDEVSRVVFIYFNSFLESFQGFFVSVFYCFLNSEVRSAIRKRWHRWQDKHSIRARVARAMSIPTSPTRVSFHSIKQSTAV
# B1: polypeptide comprising SEQ ID NO:16 (peptide)
# peptide: Ac-GSPSIVTS[αMeL]DVPT[Aib][αMeL]LQKILEQERAEKARQQAK([γGlu-Pro-Glu-Pro-Glu-Pro-Glu-C20 diacid])EAAEILAQV-NH2
# B2: polypeptide comprising SEQ ID NO:15 (peptide)
# peptide: Ac-GSPSIVTS[αMeL]DVPT[Aib][αMeL]LQKILEQERAEKARQQAK([γGlu-Pro-Pro-Pro-Pro-Pro-Pro-C20 diacid])EAAEILAQV-NH2
# B3: polypeptide comprising SEQ ID NO:37 (peptide)
# peptide: Ac-IVTS[αMeL]D[dV]PTG[αMeL]LQIKLEQERAEKARQQAKENTEILAQV-NH2
# modifications: not fully specified (residue 29)
# B4: polypeptide comprising SEQ ID NO:14 (peptide)
# peptide: Ac-GSPSIVTS[αMeL]DVPT[Aib][αMeL]LQKILEQERAEKARQQAK([γGlu-Pro-Pro-Pro-εLys-C20 diacid])EAAEILAQV-NH2
# B5: polypeptide comprising SEQ ID NO:32 (peptide)
# peptide: Ac-IVTS[αMeL]D[dV]PTG[αMeL]LQIKLEQERAEKARQQAKENTEILAQV-NH2
# modifications: not fully specified (residue 29)
# B6: polypeptide comprising SEQ ID NO:23 (peptide)
# peptide: [pGlu]GSPSGIVTS[αMeL]DVPT[Aib][αMeL]LQKILEQERAEKARQQAKEAAEILAQV-NH2
# B7: polypeptide comprising SEQ ID NO:34 (peptide)
# peptide: Ac-IVTS[αMeL]D[dV]PTG[αMeL]LQIKLEQERAEKARQQAKENTEILAQV-NH2
# modifications: not fully specified (residue 29)
# B8: polypeptide comprising SEQ ID NO:6 (peptide)
# peptide: Ac-GSPSIVTS[αMeL]DVPT[Aib][αMeL]LQKILEQERAEKARQQAK([γGlu-GKEKEKE-C20 diacid])EAAEILAQV-NH2
# B9: polypeptide comprising SEQ ID NO:13 (peptide)
# peptide: Ac-GSPSIVTS[αMeL]DVPT[Aib][αMeL]LQKILEQERAEKARQQAK([γGlu-Pro-Lys-Glu-εLys-C20 diacid])EAAEILAQV-NH2
# B10: polypeptide comprising SEQ ID NO:7 (peptide)
# peptide: Ac-GSPSIVTS[αMeL]DVPT[Aib][αMeL]LQKILEQERAEKARQQAK([Gly-βAla-βAla-βAla-γGlu-C20 diacid])EAAEILAQV-NH2
# B11: polypeptide comprising SEQ ID NO:20 (peptide)
# peptide: Ac-GSPSIVTS[αMeL]DVPT[Aib][αMeL]LQKILEQERAEKARQQAKEAAEILAQV-NH2
# B12: polypeptide comprising SEQ ID NO:31 (peptide)
# peptide: Ac-IVTS[αMeL]D[dV]PTG[αMeL]LQIKLEQERAEKARQQAKENTEILAQV-NH2
# modifications: not fully specified (residue 29)
# B13: polypeptide comprising SEQ ID NO:51 (peptide)
# peptide: Ac-IVTS[αMeL]D[dV]PI[Aib][αMeL]LQIKLEQERAEKARQQAKENTEILAQV-NH2
# modifications: not fully specified (residue 29)
# B14: polypeptide comprising SEQ ID NO:28 (peptide)
# peptide: [γGlu]GSPSIVTS[αMeL]DVPT[Aib][αMeL]LQKILEQERAEKARQQATEAAEILAQV-NH2
# modifications: not fully specified (residue 1, N-terminus); also: Glu1 linked through its gamma-carboxyl to Gly2
# B15: polypeptide comprising SEQ ID NO:9 (peptide)
# peptide: Ac-GSPSIVTS[αMeL]DVPT[Aib][αMeL]LQKILEQERAEKARQQAK([AEEA-KEKEKE-γGlu-C20 diacid])EAAEILAQV-NH2
# B16: polypeptide comprising SEQ ID NO:12 (peptide)
# peptide: Ac-GSPSIVTS[αMeL]DVPT[Aib][αMeL]LQKLLEQERAEKARQQAK([γGlu-AEEA-Lys-C18 diacid])EAAEILAQV-NH2
# modifications: not fully specified
# B17: polypeptide comprising SEQ ID NO:27 (peptide)
# peptide: H-GSPSIVTS[αMeL]DVPT[Aib][αMeL]LQKILEQERAEKARQQATEAAEILAQV-NH2
# B18: polypeptide comprising SEQ ID NO:30 (peptide)
# peptide: Ac-IVTS[αMeL]D[dV]PTG[αMeL]LQIKLEQERAEKARQQAKENTEILAQV-NH2
# modifications: not fully specified (residue 29)
# B19: polypeptide comprising SEQ ID NO:17 (peptide)
# peptide: Ac-GSPSIVTS[αMeL]DVPT[Aib][αMeL]LQKILEQERAEKARQQAK([γGlu-AEEA-AEEA-εLys-C20 diacid])EAAEILAQV-NH2
# B20: polypeptide comprising SEQ ID NO:24 (peptide)
# peptide: [pGlu]GSPSGIVTS[αMeL]DVPT[Aib][αMeL]LQKILEQERAEKARQQAK([γGlu-AEEA-εLys-C18 diacid])EAAEILAQV-NH2
# B21: polypeptide comprising SEQ ID NO:33 (peptide)
# peptide: Ac-IVTS[αMeL]D[dV]PTG[αMeL]LQIKLEQERAEKARQQAKENTEILAQV-NH2
# modifications: not fully specified (residue 29)
# B22: polypeptide comprising SEQ ID NO:5 (peptide)
# peptide: Ac-GSPSIVTS[αMeL]DVPT[Aib][αMeL]LQKILEQERAEKARQQAK([γGlu-AEEA-Ahx-C20 diacid])EAAEILAQV-NH2
# B23: polypeptide comprising SEQ ID NO:38 (peptide)
# peptide: Ac-IVTS[αMeL]D[dV]PTG[αMeL]LQIKLEQERAEKARQQAKENTEILAQV-NH2
# modifications: not fully specified (residue 29)
# B24: polypeptide comprising SEQ ID NO:3 (peptide)
# peptide: Ac-GSPSIVTS[αMeL]DVPT[Aib][αMeL]LQKILEQERAEKARQQAK([AEEA-PKE-γGlu-C20 diacid])EAAEILAQV-NH2
# modifications: reading uncertain
# B25: polypeptide comprising SEQ ID NO:35 (peptide)
# peptide: Ac-IVTS[αMeL]D[dV]PTG[αMeL]LQIKLEQERAEKARQQAKENTEILAQV-NH2
# modifications: not fully specified (residue 29)
# B26: polypeptide comprising SEQ ID NO:18 (peptide)
# peptide: Ac-GSPSIVTS[αMeL]DVPT[Aib][αMeL]LQKILEQERAEKARQQAK([γGlu-εLys-γGlu-εLys-C20 diacid])EAAEILAQV-NH2
# B27: polypeptide comprising SEQ ID NO:39 (peptide)
# peptide: Ac-IVTS[αMeL]D[dV]PTG[αMeL]LQIKLEQERAEKARQQAKENTEILAQV-NH2
# modifications: not fully specified (residue 29)
# B28: polypeptide comprising SEQ ID NO:52 (peptide)
# peptide: [γGlu]GSPSIVTS[αMeL]DVPT[Aib][αMeL]LEKILEQERAEKARQQATEAAEILAQV-NH2
# modifications: not fully specified (residue 1, N-terminus)
# B29: polypeptide comprising SEQ ID NO:11 (peptide)
# peptide: Ac-GSPSIVTS[αMeL]DVPT[Aib][αMeL]LQKILEQERAEKARQQAK([γGlu-Pro-Lys-Glu-Ahx-C20 diacid])EAAEILAQV-NH2
# B30: polypeptide comprising SEQ ID NO:19 (peptide)
# peptide: Ac-GSPSIVTS[αMeL]DVPT[Aib][αMeL]LQKILEQERAEKARQQAK([γGlu-εLys-AEEA-εLys-C20 diacid])EAAEILAQV-NH2
# B31: polypeptide comprising SEQ ID NO:8 (peptide)
# peptide: Ac-GSPSIVTS[αMeL]DVPT[Aib][αMeL]LQKILEQERAEKARQQAK([Gly-βAla-βAla-βAla-βAla-γGlu-C20 diacid])EAAEILAQV-NH2
# B32: polypeptide comprising SEQ ID NO:36 (peptide)
# peptide: Ac-IVTS[αMeL]D[dV]PTG[αMeL]LQIKLEQERAEKARQQAKENTEILAQV-NH2
# modifications: not fully specified (residue 29)
# B33: polypeptide comprising SEQ ID NO:4 (peptide)
# peptide: Ac-GSPSIVTS[αMeL]DVPT[Aib][αMeL]LQKILEQERAEKARQQAK([Ahx-AEEA-γGlu-C20 diacid])EAAEILAQV-NH2
# B34: polypeptide comprising SEQ ID NO:26 (peptide)
# peptide: [γGlu]GSPSIVTS[αMeL]DVPT[Aib][αMeL]LQKILEQERAEKARQQATEAAEILAQV-NH2
# modifications: not fully specified (residue 1, N-terminus); also: Glu1 linked through its gamma-carboxyl to Gly2
# B35: polypeptide comprising SEQ ID NO:10 (peptide)
# peptide: Ac-GSPSIVTS[αMeL]DVPT[Aib][αMeL]LQKILEQERAEKARQQAK([βAla-Ser-βAla-Ser-γGlu-C20 diacid])EAAEILAQV-NH2
# B36: polypeptide comprising SEQ ID NO:21 (peptide)
# peptide: Ac-GSPSIVTS[αMeL]DVPT[Aib][αMeL]LQKILEQERAEKARQQAK([γGlu-AEEA-εLys-C18 diacid])EAAEILAQV-NH2
# Molecular target: T1, human corticotropin-releasing hormone …
# Assay: cell-based or functional assay
row,hCRHR1 cAMP EC50,Binder
1,> 10 µM,B1
2,> 10 µM,B2
3,1.7 µM,B3
4,> 10 µM,B4
5,> 10 µM,B5
6,> 10 µM,B6
7,> 10 µM,B7
8,> 10 µM,B8
9,> 10 µM,B9
10,> 10 µM,B10
11,> 10 µM,B11
12,> 10 µM,B12
13,4.3 µM,B13
14,> 10 µM,B14
15,> 10 µM,B15
16,> 10 µM,B16
17,> 10 µM,B17
18,> 10 µM,B18

row,hCRHR1 cAMP EC50,Binder
1,> 10 µM,B19
2,> 10 µM,B20
3,1.1 µM,B21
4,> 10 µM,B22
5,1.1 µM,B23
6,> 10 µM,B24
7,3 µM,B25
8,> 10 µM,B26
9,3.7 µM,B27
10,1.5 µM,B28
11,> 10 µM,B29
12,> 10 µM,B30
13,> 10 µM,B31
14,1.8 µM,B32
15,> 10 µM,B33
16,> 10 µM,B34
17,> 10 µM,B35
18,> 10 µM,B36

# — patent publication US20250163119A1, “COMPOUNDS FOR THE TREATMENT OF DIABETES OR OBESITY” (Eli Lilly and Company, priority 2023, published 2025)
